Measurements: patent publication US20250129175A1 (SUNSHINE GUOJIAN PHARMACEUTICAL SHANGHAI, published 2025)

Assays:
[1] = target: T1, Human CD38 protein (human, UniProt P28907 43-300, limits assumed, biotinylated with EZ-Link NHS-LC-Biotin (sites not given)); experiment: SPR, Biacore 8K, biotinylated CD38 captured on CAP chip, antibody as analyte, 1:1 model
T1 construct: Biotinylated and captured on a Biacore CAP chip; also called CD38-biotin; Biotin-CD38

[2] = target: T2, CD38-ECD-Cyno (cynomolgus monkey, UniProt Q5VAN0 44-301); experiment: ELISA, plate coated with CD38-ECD-Cyno (10 ng/well), anti-human Fc-HRP detection
T2 construct: Recombinant protein expressed in HEK293F cells and purified on Ni-NTA; Coated on the ELISA plate at 10 ng/well; also called cynomolgus monkey CD38; cynomolgus monkeys CD38; not shown: polyhistidine tag added at the end of the gene
T2 sequence (Q5VAN0 44-301): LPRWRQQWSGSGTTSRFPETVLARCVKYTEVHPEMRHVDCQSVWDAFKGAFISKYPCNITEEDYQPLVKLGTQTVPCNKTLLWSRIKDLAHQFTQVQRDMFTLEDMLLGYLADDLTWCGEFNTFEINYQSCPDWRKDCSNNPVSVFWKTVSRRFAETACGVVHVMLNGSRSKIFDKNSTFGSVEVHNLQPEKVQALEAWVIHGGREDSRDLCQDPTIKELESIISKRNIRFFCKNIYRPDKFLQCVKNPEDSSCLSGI
Protocol: The microplates were coated with corresponding recombinant proteins and closed with PBST containing 1% bovine serum albumin (PBST is a phosphate buffer containing 0.05% Tween-20). The tested antibody was diluted in a gradient and it was transferred to a microplate coated with recombinant protein. The sample was incubated at room temperature for half an hour. After washing the plate, appropriately diluted HRP (Horseradish Peroxidase) labeled sheep anti human antibody (Fc specific, purchased from Sigma) was added and incubated at room temperature for half an hour. After washing, 100 μL color developing solution with TMB(3,3′,5,5′-Tetramethylbenzidine) as substrate was added to each well and incubated at room temperature for 1˜5 min. The reaction was terminated by adding 50 μL termination solution (2 M H₂SO₄). The board reader (SpectraMax 190) reads OD450. GraphPad Prism7 was used for mapping and data analysis, and EC50/IC50 was calculated.
Microplate (10 ng/well) was coated with CD38-ECD-Cyno, and the binding ability of CD38-ECD-Cyno to 50G12-Hu-IgG1, OKT10-Hu-IgG1, Daratumumab-IgG1, and Isatuximab-IgG1 was determined by ELISA.

B1: 50G12-Hu-IgG1 (antibody)
heavy: not shown
light: DIQMTQSPSSLSASVGDRVTITCTASSSVSSSYLHWYQQKPGKAPKLWMYGTSNLASGVPSRFSGSGSGTDYTLTISSLQPEDFATYYCHRYHRSPWTFGQGTKVEIKRTVAAPSVFIFPPSDEQLKSGTASVVCLLNNFYPREAKVQWKVDNALQSGNSQESVTEQDSKDSTYSLSSTLTLSKADYEKHKVYACEVTHQGLSSPVTKSFNRGEC
notes: Humanized anti-human CD38 IgG1/kappa, expressed in HEK293F cells and purified on Protein A; also called 50G12-Humanized; unmutated antibody 50G12-Hu-IgG1
Kd [1]: 3.58 nM
koff [1]: 0.000613 s⁻¹
kon [1]: 171000 M⁻¹ s⁻¹

B2: 50G12-L309W-E345R (antibody, human IgG1, kappa)
heavy: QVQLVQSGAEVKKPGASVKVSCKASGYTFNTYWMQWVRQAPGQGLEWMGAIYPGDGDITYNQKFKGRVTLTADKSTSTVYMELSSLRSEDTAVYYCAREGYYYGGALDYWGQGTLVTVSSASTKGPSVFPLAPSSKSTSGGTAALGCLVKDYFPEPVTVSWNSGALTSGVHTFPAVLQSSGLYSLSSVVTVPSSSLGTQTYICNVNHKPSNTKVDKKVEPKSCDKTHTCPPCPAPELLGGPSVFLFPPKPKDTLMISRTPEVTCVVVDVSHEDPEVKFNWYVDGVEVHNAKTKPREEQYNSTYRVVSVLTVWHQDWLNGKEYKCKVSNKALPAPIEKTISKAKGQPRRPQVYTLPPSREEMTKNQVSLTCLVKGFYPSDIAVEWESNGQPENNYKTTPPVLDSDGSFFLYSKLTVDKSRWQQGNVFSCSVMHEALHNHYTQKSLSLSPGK
light: DIQMTQSPSSLSASVGDRVTITCTASSSVSSSYLHWYQQKPGKAPKLWMYGTSNLASGVPSRFSGSGSGTDYTLTISSLQPEDFATYYCHRYHRSPWTFGQGTKVEIKRTVAAPSVFIFPPSDEQLKSGTASVVCLLNNFYPREAKVQWKVDNALQSGNSQESVTEQDSKDSTYSLSSTLTLSKADYEKHKVYACEVTHQGLSSPVTKSFNRGEC
notes: also called 50G12-Hu-IgG1-L309W-E345R
Kd [1]: 2.99 nM
koff [1]: 0.00103 s⁻¹
kon [1]: 346000 M⁻¹ s⁻¹

B3: OKT10-Hu-IgG1 (antibody, V domains shown)
VH: EVQLVESGGGLVQPGGSLRLSCAASGFDFSRSWMNWVRQAPGKGLEWVSEINPDSSTINYTTSLKDRFTISRDNAKNSLYLQMNSLRAEDTAVYYCARYGNWFPYWGQGTLVTVSS
VL: DIQMTQSPSSLSASVGDRVTITCKASQNVDTNVAWYQQKPGKAPKALIYSASYRYSGVPSRFSGSGSGTDFTLTISSLQPEDFATYYCQQYDSYPLTFGQGTKVEIKR
notes: Humanized anti-human CD38 IgG1/kappa; also called humanized OKT10
EC50 [2]: 0.132 nM
